Test [1] has as its target recombinant human TNF (human) (UniProt P01375). The experiment in a line: anti-TNF ELISA, protein by BCA; second of two lots.
Test [2] has the same target. In words: anti-TNF ELISA, AU/mg of final lot over defatted colostrum.
The target is the same in test [3]. In words: sandwich ELISA, rhTNF 250 pg/ml captured by plate-bound antibody.
Test [4] concerns the target recombinant murine TNF (murine) (UniProt P06804). In words: cell-based or functional assay.
The target of test [5] is transmembrane TNF on stimulated human PBMC (human) (UniProt P01375). In words: cell-based or functional assay.
The target of test [6] is recombinant rhesus macaque TNF (rhesus macaque) (UniProt P48094). The experiment in a line: cell-based or functional assay.
The target of test [7] is recombinant canine TNF (canine) (UniProt P51742). In words: cell-based or functional assay.
For test [8], the target named is recombinant cynomolgus monkey TNF (cynomolgus monkey) (UniProt P79337). The experiment in a line: cell-based or functional assay.
Test [9] has as its target recombinant bovine TNF (bovine) (UniProt Q06599). In words: cell-based or functional assay.
Test [10] has as its target recombinant human TNF (human) (UniProt P01375). In words: cell-based or functional assay.
The target in test [11] is recombinant rat TNF (rat) (UniProt P16599). In words: cell-based or functional assay.
In test [12] the target is recombinant human IL-6 (human) (UniProt P05231). In words: sandwich ELISA, rhIL-6 300 pg/ml captured by plate-bound antibody.
Test [13] has as its target recombinant human TNF (human) (UniProt P01375). The experiment in a line: table head: EC50 in TNF ELISA; the text that introduces the table speaks of the L929 neutralization assay.
Test [14] has the same target. In words: anti-TNF ELISA, protein by BCA; first of two lots.

Chain of UniProt P05231 (P05231 30-212 limits assumed): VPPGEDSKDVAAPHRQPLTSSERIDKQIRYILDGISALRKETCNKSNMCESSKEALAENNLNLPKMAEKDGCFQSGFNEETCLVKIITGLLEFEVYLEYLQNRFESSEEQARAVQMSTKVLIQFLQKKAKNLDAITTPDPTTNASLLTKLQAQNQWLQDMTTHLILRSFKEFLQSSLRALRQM
Chain of UniProt Q06599 (Q06599 whole entry, form in doubt): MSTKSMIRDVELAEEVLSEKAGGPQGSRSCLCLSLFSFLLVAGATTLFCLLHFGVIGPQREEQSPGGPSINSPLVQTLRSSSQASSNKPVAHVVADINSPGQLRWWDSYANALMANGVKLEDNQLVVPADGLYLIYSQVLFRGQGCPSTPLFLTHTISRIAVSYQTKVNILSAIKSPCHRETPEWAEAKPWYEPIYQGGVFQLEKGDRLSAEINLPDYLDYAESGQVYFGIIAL
Chain of UniProt P51742 (P51742 whole entry, form in doubt): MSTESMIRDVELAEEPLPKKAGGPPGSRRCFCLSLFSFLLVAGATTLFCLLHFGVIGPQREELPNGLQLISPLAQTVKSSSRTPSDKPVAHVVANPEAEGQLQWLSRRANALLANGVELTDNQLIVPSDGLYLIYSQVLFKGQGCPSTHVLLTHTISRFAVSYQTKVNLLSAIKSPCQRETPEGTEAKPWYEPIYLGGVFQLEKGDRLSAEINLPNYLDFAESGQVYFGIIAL
Chain of UniProt P79337 (P79337 whole entry, form in doubt): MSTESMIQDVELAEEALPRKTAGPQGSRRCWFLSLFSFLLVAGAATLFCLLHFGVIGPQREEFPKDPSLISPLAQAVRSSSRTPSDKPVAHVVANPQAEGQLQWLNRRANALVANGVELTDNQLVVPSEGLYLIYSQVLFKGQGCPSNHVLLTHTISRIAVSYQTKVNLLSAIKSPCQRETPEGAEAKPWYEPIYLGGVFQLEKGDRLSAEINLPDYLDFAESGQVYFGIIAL
Chain of UniProt P06804 (P06804 whole entry, form in doubt): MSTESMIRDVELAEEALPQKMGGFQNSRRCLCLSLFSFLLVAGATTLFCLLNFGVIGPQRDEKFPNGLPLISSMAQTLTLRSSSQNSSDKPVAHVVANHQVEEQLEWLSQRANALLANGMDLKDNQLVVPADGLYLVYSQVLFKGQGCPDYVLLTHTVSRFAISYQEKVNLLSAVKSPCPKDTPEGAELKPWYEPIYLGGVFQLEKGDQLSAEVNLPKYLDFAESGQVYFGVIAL
Chain of UniProt P16599 (P16599 whole entry, form in doubt): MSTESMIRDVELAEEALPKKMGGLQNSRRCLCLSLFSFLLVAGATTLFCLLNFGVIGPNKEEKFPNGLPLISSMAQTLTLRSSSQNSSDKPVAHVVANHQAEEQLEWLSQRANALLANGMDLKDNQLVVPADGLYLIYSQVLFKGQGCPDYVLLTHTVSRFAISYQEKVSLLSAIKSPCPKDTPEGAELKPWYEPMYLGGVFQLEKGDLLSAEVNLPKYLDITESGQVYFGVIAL
Chain of UniProt P48094 (P48094 whole entry, form in doubt): as the sequence (P79337 whole entry, form in doubt) above, with Q8R, A45T, V113L counted along it

For the substance “AVX-470, bovine colostrum-derived polyclonal anti-hTNF antibody”, the anti-TNF activity by ELISA per mg protein (AU/mg protein) amounted to 526 in test [1] and 634 in test [14]. In test [2], the fold increase of potency against defatted colostrum worked out at 1.9 fold. In addition, the Absorbance 450 nm (absorbance at 450 nm) in test [3] worked out at 0.76; in [12], 0.03. Further, the EC50, L929 neutralization assay in test [4] is above 2000 µg/mL; in test [6], 32 µg/mL; in [7], 250 µg/mL; in test [8] it was 48 µg/mL; in test [9], above 2000 µg/mL; in test [10], 28 µg/mL. The EC50, L929 neutralization assay in [11] was above 2000 µg/mL. Further, the Late apoptotic cells, annexin V / propidium iodide FACS of stimulated human PBMC (untreated 27.16%) in test [5] turned out to be 43.3%. The substance further came in with a Total apoptotic cells, annexin V / propidium iodide FACS of stimulated human PBMC (untreated 34.65%) in [5] of 52.1%. Further, the EC50 in test [13] came out at 15.9 µg/mL.
With Control Bovine Ig (antibody), the figures for the Absorbance 450 nm (absorbance at 450 nm) in test [3] and in test [12] were -0.01 and 0.01, respectively.

Values taken from patent US20130058943A1.
